Data taken from US20230272097A1 (PETMEDIX, published 2023).

T1: canine OX40L, full length membrane form, expressed on the cell surface (HEK293 or MEF cells stably … (canine (dog, beagle)))
T1 construct: The same protein is used on HEK293 and on MEF cells; also called HEK-OX40L; OX40L expressing HEK293 cells
T1 chain: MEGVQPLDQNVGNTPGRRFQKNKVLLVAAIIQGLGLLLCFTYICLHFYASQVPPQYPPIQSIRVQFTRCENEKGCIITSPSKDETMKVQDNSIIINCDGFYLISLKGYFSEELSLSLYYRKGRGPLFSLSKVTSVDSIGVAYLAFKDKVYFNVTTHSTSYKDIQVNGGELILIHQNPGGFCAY


Assays:
[1] = molecular target: T1, canine OX40L, full length membrane …; experiment: flow cytometry titration on HEK cells expressing OX40L; Kd (EC50) from GeoMean vs concentration, Prism four parameter fit
Description: (§1) FIG. 10. Affinity determination for antibodies that bind OX40L on HEK cells expressing OX40L. Graphs are generated by plotting GeoMean arbitrary units (AU) against Log₁₀ [concentration]. Kd (EC₅₀) was calculated using Prism.
(§2) Specific binding to cells expressing OX40L is confirmed by purifying mAb from the CHO supernatant using protein A resin (MabSelect, Cytiva). In brief, MabSelect resin is washed in PBS and diluted to have a 10% slurry. An appropriate volume of the 10% slurry is added to the supernatant and incubated 5-10′ at RT before being loaded into a filter column. After 3 washes with PBS the antibodies are eluted using IgG elute buffer (Pierce) directly into neutralisation buffer (10 mM TRIS pH8.0), 8:1 IgG elute: neutralisation buffer ratio. Antibody solutions are quantified measuring absorbance at 280 nm, using a Nanodrop One (Thermo Fisher). Serial 1:3 dilutions of purified antibodies ranging from 6.6 μM to 66 pM are prepared in FACS buffer and are used to stain HEK293 or MEF cells (or any other commonly used cell lines) expressing canine OX40L.

[2] = molecular target: T1, canine OX40L, full length membrane …; experiment: flow cytometry titration on MEF cells expressing OX40L; Kd (EC50) from GeoMean vs concentration, Prism four parameter fit
Description: FIG. 11. Affinity determination for antibodies that bind OX40L on MEF cells expressing OX40L. Graphs are generated by plotting GeoMean arbitrary units (AU) against Log₁₀ [concentration]. Kd (EC₅₀) was calculated using Prism.
as §2

[3] = molecular target: T1, canine OX40L, full length membrane …; experiment: flow cytometry titration on HEK cells expressing OX40L; Kd (EC50), Prism
Description: as §1, with “FIG. 12.” for “FIG. 10.”, “OX40L formulated in canine IgGB Def2 and Def7 backbones. The experiment was performed using” for “OX40L on”, “(AU) values” for “(AU)”
as §2

[4] = molecular target: T1, canine OX40L, full length membrane …; experiment: flow cytometry, single dose, OX40L expressing HEK293 cells against the parental line, fluorescently labelled secondary antibody
Description: CHO cells supernatants containing candidate antibodies are diluted to 1, 5 or 10 μg/ml in FACS buffer (PBS containing 3% FBS) and screened for their ability to bind canine OX40L proteins expressed on cell surface. In brief, HEK293 or MEF cells (or any other commonly used cell lines) expressing canine OX40L at the cell surface are incubated with 100 μl of FACS buffer containing the candidate antibody for 30′ on ice. As a control the parental cell line (HEK293 or MEF cells not expressing OX40L) is also stained with the same antibody solution. After staining, cells are washed with 150 μl FACS buffer followed by centrifugation at 300 g for 3 min. Supernatant is removed, and the cell pellet is resuspended in FACS buffer containing a 1:1000 dilution of a fluorescently labelled secondary antibody recognising the human or canine Fc region of the test antibody for 30 min in the dark, followed by washing with 150 μl FACS buffer and centrifugation at 300 g for 3 mins. Cells are resuspended in FACS buffer and flow cytometry performed using either a […] cytometer, followed by data analysis using FlowJo (FIG. 8).

Kd [1] | Kd [2] | Kd [3] | binding result [4] | Binder
2.8 nM | 0.71 nM | – | – | PMX020 (antibody, V domains shown, Canine variable regions) VH: EVQLVESGGDLVKPGGSLRISCVASGFTFSSYHMNWVRQAPGKGLQWVAHISSGGTFTSYADAVKGRFTISRDNAKNTLYLQMISLRAEDTAVYYCASGLFLVVGGGNYWGRGTLVTVSS VL: SYVLTQLPSKNVTLKQPAHITCGGDNIGSKSVHWYQQKLGQAPVLIIYSDSSRPTGIPERFSGANSGNTATLTISGALAEDEADYYCQVWDSSASVFGGGTHLTVL
– | – | – | binds | PMX 024 (antibody, V domains shown, anti-canine OX40L candidate) VH: EVLLMESGGDLVKPGGSLRLSCVASGFTFSSNYMYWIRQAPGKGLQWVSQISGDGSFTNYADAVKGRFTISRDNAKNTLYLQMNSLRDEDTAVFYCASGIYPNAFGYWGQGTLVTVSS VL: SYVLTQPPSKNVTLKQPAHITCGGDNIGSKSVHWYQQKLGQAPVLIIYYDSSRPTGIPERFSGANSGNTATLTISGALAEDEADYYCQVRDSSANVFGGGTHLTVL
– | – | 58.1 nM | – | PMX020 formulated in canine IgGB Def7 backbone (antibody, also called PMX020 Def7; not shown: light chain constant region (human kappa, or canine kappa or lambda)) heavy: EVQLVESGGDLVKPGGSLRISCVASGFTFSSYHMNWVRQAPGKGLQWVAHISSGGTFTSYADAVKGRFTISRDNAKNTLYLQMISLRAEDTAVYYCASGLFLVVGGGNYWGRGTLVTVSSASTTAPSVFPLAPSCGSTSGSTVALACLVSGYFPEPVTVSWNSGSLTSGVHTFPSVLQSSGLYSLSSMVTVPSSRWPSETFTCNVAHPASKTKVDKPVPKRENGRVPRPPDCPKCPAPEAAGGPSVFIFPPKPKDTLLIARTPEVTCVVVDLDPEDPEVQISWFVDGKQMQTAKTQPREEQFNGTYRVVSVLPIGHQDWLKGKQFTCKVNNKALGSPIERTISKARGQAHQPSVYVLPPSREELSKNTVSLTCLIKDFFPPDIDVEWQSNGQQEPESKYRTTPPQLDEDGSYFLYSKLSVDKSRWQRGDTFICAVMHEALHNHYTQKSLSHSPGK light: SYVLTQLPSKNVTLKQPAHITCGGDNIGSKSVHWYQQKLGQAPVLIIYSDSSRPTGIPERFSGANSGNTATLTISGALAEDEADYYCQVWDSSASVFGGGTHLTVL
30 nM | 10.7 nM | – | – | PMX017 (antibody, V domains shown, Canine variable regions) V domain 1: EVQLVESGGDLVKPGGSLRLSCVASGFTFSSYHMSWVRQAPGKGLQWVAYIASGGTVTTYADAVRGRFTISRDNAKNMLYLQMNSLRAEDSAVYYCTRWKGGTFGYGMDYWGHGTSLFVSS V domain 2: SYVLTQLPSKNVTLKQPAHITCGGDNIGSKSVHWYQQKLGQAPVLIIYYDNNRPAGIPERFSGANSGNTATLTISGALAEDEADYYCQVWDSSAKASVFGGGTHLTVL
23.6 nM | – | – | – | PMX018 (antibody, V domains shown, Canine variable regions) VH: EVQLVESGGDLVKPGGSLRLSCVASGFTFSNYHMNWVRQAPGKGLQWVAYITNDGIVSSYADAVKGRFTISRDNAKNTLYLQMNSLRVEDTAVYYCASGLFLVVGGGTFWGQGTLVTVSS VL: SYVLTQLPSKNVTLKQPAHITCGGDNIGSKSVHWYQHKLGQAPVLIIYYDSSRPTGIPERFSGANSGNTATLTISGALAEDEADYYCQVWDSSAKASVFGGGTHLTVL

Further lines, the binder ahead of its results:

Binder | Kd [1] | Kd [2] | Kd [3] | binding result [4]
PMX019 (antibody, V domains shown, Canine variable regions; also called PMX19) VH: EVQLVESGGDLVKPGGSLRLSCVASGFTFSSNYMSWIRQAPGKGLQWVSQISGDGIYTNYADAMKGRFTISRDNAKNTLYLQMNSLRDEDTALYYCATGIYPNAFGYWGQGTLVTVSS VL: SYVLTQLSSKNVTLKQPAHITCGGDNIGSKSVHWYQQKLGQAPVLIIYYDSSRPTGIPERFSGANSGNTATLTISGALAEDEADYYCQVWDSSANVFGGGTHLTVL | 4.49 nM | 38.3 nM | – | –
PMX020 formulated in canine IgGB Def2 backbone (antibody, also called PMX020 Def2; not shown: light chain constant region (human kappa, or canine kappa or lambda)) heavy: EVQLVESGGDLVKPGGSLRISCVASGFTFSSYHMNWVRQAPGKGLQWVAHISSGGTFTSYADAVKGRFTISRDNAKNTLYLQMISLRAEDTAVYYCASGLFLVVGGGNYWGRGTLVTVSSASTTAPSVFPLAPSCGSTSGSTVALACLVSGYFPEPVTVSWNSGSLTSGVHTFPSVLQSSGLYSLSSMVTVPSSRWPSETFTCNVAHPASKTKVDKPVPKRENGRVPRPPDCPKCPAPESLGGPSVFIFPPKPKDTLLIARTPEVTCVVVDLGREDPEVQISWFVDGKQMQTAKTQPREEQFNGTYRVVSVLPIGHQDWLKGKQFTCKVNHIGLPSPIERTISKARGQAHQPSVYVLPPSREELSKNTVSLTCLIKDFFPPDIDVEWQSNGQQEPESKYRTTPPQLDEDGSYFLYSKLSVDKSRWQRGDTFICAVMHEALHNHYTQKSLSHSPGK light: SYVLTQLPSKNVTLKQPAHITCGGDNIGSKSVHWYQQKLGQAPVLIIYSDSSRPTGIPERFSGANSGNTATLTISGALAEDEADYYCQVWDSSASVFGGGTHLTVL | – | – | 45.4 nM | –
PMX016 (antibody, V domains shown, Canine variable regions) VH: EVQLVESGGDLVKPGGSLRLSCVASGFTFSNYHMNWVRQAPGKGLQWVAYITSDGIVSSYADVVKGRFTISRDNAKNTLFLQMNSLRAEDTAVYYCASGLFLVVGGGTFWGQGTLVTVSS VL: SYVLTQLPSKNVTLKQPAHITCGGDNIGSKSVHWYQQKLGQAPVLIIYSDSSRPTGIPERFSGANSGNTATLTISGALAEDEADYYCQVWDSSAKASVFGGGTHLTVL | 37.4 nM | 108 nM | – | –
PMX014 formulated in canine IgGB Def2 backbone (antibody, also called PMX014 Def2; not shown: light chain constant region (human kappa, or canine kappa or lambda)) heavy: EVQLVESGGDLVKPGGSLRLSCVASGFTFSNFHMSWVRQAPGKGLQWVAYINSGGFNINYEDAVRGRFTISRDNAKNTLYLQMNSLRAEDTAIYYCARDWDTHLDTNWFYYWGQGTLVTVSSASTTAPSVFPLAPSCGSTSGSTVALACLVSGYFPEPVTVSWNSGSLTSGVHTFPSVLQSSGLYSLSSMVTVPSSRWPSETFTCNVAHPASKTKVDKPVPKRENGRVPRPPDCPKCPAPESLGGPSVFIFPPKPKDTLLIARTPEVTCVVVDLGREDPEVQISWFVDGKQMQTAKTQPREEQFNGTYRVVSVLPIGHQDWLKGKQFTCKVNHIGLPSPIERTISKARGQAHQPSVYVLPPSREELSKNTVSLTCLIKDFFPPDIDVEWQSNGQQEPESKYRTTPPQLDEDGSYFLYSKLSVDKSRWQRGDTFICAVMHEALHNHYTQKSLSHSPGK light: SYVLTQLPSKNVTLKQSAHITCRGDNIGSKSVHWYQQKLGQAPVLIIYYDSSRPTGIPERFSGANSGNTATLTISGALAEDEADYYCQVWDISAKASVFGGGTHLTVL | – | – | 74.6 nM | –
PMX013 (antibody, V domains shown, Canine variable regions) VH: ELTLQESGPGLVKPSQTLSLTCVVSGGSVTSSHYWNWIRQRPGRGLEWMGSWTGGTNYNPAFQGRISVTSDTAKNQFSLQLSSLTTEDTAVYYCARGGGYSGTWKDYYVMDYWGHGTSVIVSS VL: SYVLTQLPSKNVTLNQPAHITCGGDNLGSKSVHWYQQKLGQAPVLIIYFDTSRPTGIPERFSGANSGNTATLTISGALAEDEADYYCQVWDSSAKASVFGGGTHLTVL | 165 nM | 22.7 nM | – | –
PMX014 formulated in canine IgGB Def7 backbone (antibody, also called PMX014 Def7; not shown: light chain constant region (human kappa, or canine kappa or lambda)) heavy: EVQLVESGGDLVKPGGSLRLSCVASGFTFSNFHMSWVRQAPGKGLQWVAYINSGGFNINYEDAVRGRFTISRDNAKNTLYLQMNSLRAEDTAIYYCARDWDTHLDTNWFYYWGQGTLVTVSSASTTAPSVFPLAPSCGSTSGSTVALACLVSGYFPEPVTVSWNSGSLTSGVHTFPSVLQSSGLYSLSSMVTVPSSRWPSETFTCNVAHPASKTKVDKPVPKRENGRVPRPPDCPKCPAPEAAGGPSVFIFPPKPKDTLLIARTPEVTCVVVDLDPEDPEVQISWFVDGKQMQTAKTQPREEQFNGTYRVVSVLPIGHQDWLKGKQFTCKVNNKALGSPIERTISKARGQAHQPSVYVLPPSREELSKNTVSLTCLIKDFFPPDIDVEWQSNGQQEPESKYRTTPPQLDEDGSYFLYSKLSVDKSRWQRGDTFICAVMHEALHNHYTQKSLSHSPGK light: SYVLTQLPSKNVTLKQSAHITCRGDNIGSKSVHWYQQKLGQAPVLIIYYDSSRPTGIPERFSGANSGNTATLTISGALAEDEADYYCQVWDISAKASVFGGGTHLTVL | – | – | 74.2 nM | –
